One data set has as its system HP1α (untagged, wt). Kind of data set: EMSA. Particulars: 20 mM HEPES pH 7.5, 70 mM KCl, 1 mM DTT. On the technique in general: In EMSA bound probe runs differently from free probe, usually more slowly.
A further data set deals with HP1α-16aa-mEGFP. As to the kind of experiment: EMSA. Particulars: 20 mM HEPES pH 7.5, 70 mM KCl, 1 mM DTT.

Take 187 bp DNA: the K half in the data set with HP1α (untagged, wt) worked out at 880 nM; in the data set on HP1α-16aa-mEGFP it was 580 nM.

These data come from publication doi:10.1101/2023.12.04.569983.
